Data taken from publication PMC3792637 (Chembiochem, 2013).

Tests used:
[1] = molecular target: T1, S. aureus NAL (N-acetylneuraminic acid lyase) (Staphylococcus aureus, UniProt Q2G160); test: X-ray crystal structure, soak; format: binding; conditions: covalent Schiff base with Lys165; 100 mM sodium pyruvate soak
T1 sequence (Q2G160 1-293): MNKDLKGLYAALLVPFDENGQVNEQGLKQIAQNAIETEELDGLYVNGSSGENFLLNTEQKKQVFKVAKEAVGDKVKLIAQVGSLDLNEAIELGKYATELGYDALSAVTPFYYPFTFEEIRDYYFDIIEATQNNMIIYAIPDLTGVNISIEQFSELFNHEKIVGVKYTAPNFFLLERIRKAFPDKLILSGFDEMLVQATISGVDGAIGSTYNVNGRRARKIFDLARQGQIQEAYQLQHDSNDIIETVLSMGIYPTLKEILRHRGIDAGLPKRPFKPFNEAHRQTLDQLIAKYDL

[2] = molecular target: K165-γ-thialysine S. aureus N-acetylneuraminic acid lyase (Staphylococcus aureus NCTC 8325) (UniProt Q2G160); test: crystal structure
[3] = molecular target: K165C variant of S. aureus N-acetylneuraminic acid lyase (Staphylococcus aureus NCTC 8325) (UniProt Q2G160); test: crystal structure

Molecule: CC(=O)C(=O)O [pyruvate]
- X-ray crystal structure, soak [1]: the structure of the enzyme–pyruvate complex (PDB ID: 4AH7) was also determined

Molecule: K165-γ-thialysine S. aureus N-acetylneuraminic acid lyase (from UniProt Q2G160 1-293) (enzyme)
- stoichiometry N [2]: 4

Molecule: K165C variant of S. aureus N-acetylneuraminic acid lyase (from UniProt Q2G160 2-293) (enzyme)
- stoichiometry N [3]: 4
